Test results published in the nanobody polyreactivity screen of Harvey et al. (2022).

Assay: yeast display, Sf9 membrane polyspecificity reagent, FACS + sequencing; frameworks hold sequencing errors
How it was run: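 After 36–48 hours of galactose induction, yeast (Saccharomyces cerevisiae BJ5465) displaying a synthetic nanobody library were stained at 4 °C for 1 hour with 10% biotinylated, detergent-solubilized Sf9 membrane reagent. Streptavidin microbeads enriched the stained cells before FACS sorting into low and high (top ~1%) gates on anti-HA and streptavidin fluorescence. Each clone's polyreactivity label reflects its gate of origin.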

Sequence	polyreactivity (PSR sort gate)
QVQLVESGGGLVQAGGSLRISCAASGSIFDLNPMGGYRQAPGKERELVAAISSGGGTYYADSVKGRFTISRDNAKNTVYLQMNRLIPEDTAVYYCIRVTRWTSNYWGQCTQVTVSS	high polyreactivity
QVQLVESGGGLVQAGGSLRLSCAASGYILHPNAMRWYRQSPGKDRELVAAIRWRGGSTYYADSVKGRFTISRDNAKNTVYLQMNSLKPEDTAVYYCAADKSKYRAFDYWGQGTQVTVSS	high polyreactivity
QVHLLDSGGGLVQEGGSLRLSCAASGSTIYVYAMGWYRQAPGKERELVAAITWDGDRTYYADSVKGRFTISRHNAKNTVYLHMTSLNPEDSAVYYCNRDIGGTSVLDDYWGQGTQVTVSS	low polyreactivity
QVQLVESGGGLVQAGGSLRLSCAASGSIFHRYAMGWYRQAPGKERELVAAINRGGSSYADSVKGRFTISLDNAKNTVYLQMNRLNPEDTAVYYCATRNIGRSTGPFYWGYYYWGQGTQVTVSS	high polyreactivity
QVQLVESGGGLDQAGGSLRLSCAASGSIFSTYAMGWYRQAPGKERELVAAISRNGGSTSYADSVKGRFTISRDNAKNTVYLQMNILKPEDTAVYYCNAGVYWPGEFDYWGQGTQVTVSS	high polyreactivity
QVQLLESGGGLVQAGGSLRLSCAASGRTFRHNVMAWYRQAPGNERELVAAISYSRGSTHYADSVKGRFTISRDNAKNTVYFQMNSLKPEANAVYYCNRYSYDAHFLYPFRGHDYWGQGTQVTVTS	low polyreactivity
QVQLVESGGGLVQEGGSLRLSCAASGSTSRKYTMGWYRQAPGKERELVATISWSGGSTNYADSVKGRFTISRDNAKNNVYLQMNSLIPEDTAVYYCNAYVSPRYRGTRYYYWGQVTQVTVSS	high polyreactivity
QVQLVESGGGLVQAGGSVRLSCAASGFTFGYYAMGWYRQAPGKERELVASISSVDNTYYADSVKGRFTISRDNAKNTVSFQMNSLKPEDTAVDYCAARYRDYFVRGGYWGQGTQVSVSS	high polyreactivity
QVQLVESGGGLVQAGGSLRLSCAASGSIFGYYTMGWYRQAPGKEREFVAAISWSGGSTYYADSVKGRFTISRDNAKNTVYLQMTSLKPEDTAVYYCNADVYWEYDYWGQGTQVTVSS	low polyreactivity
QVQLVESGGGLVQAGGSLRLSCAASGSIFWYNAMGWYRQAPGKERELVASISYSGAITYYADSVKGRFTISRDNAKNTVYLQMNSLKPEDTAVYYCNAEHYLPGYDWSEYDSWGQGTQVTVSS	low polyreactivity
QVQLQESGGGLVQADGSLRLSCAASGSMFGYYYMGWYRQAPGKDRELVATIHICGITNYADSVKGRFTISRDNAKNTVYLQMNSLKPDDTAVYYCAADEYAQRDLGYWGQGTQVTVSS	low polyreactivity
QVQLVESGGGLVQAGGSLRLSCAASGRIFYWYVMGWYRQAPGKERELVASISSGGGTNYADSVKGRFTISRDNAKNTVYLQMNSLKPEDTAVYYCAARAYPYYWTGQKQSRFGYWGQGTQVTVSS	high polyreactivity
QVQLVESGGGLVQAGGSLRLSCAASGSTFDFNAMGWYRQAPGKERELVAAITYSAGSTYSADSVKGRFTISRDNAQNTVDLQMNSLKPEDTAVYYCAAEDVYPGSIDMDDWGQGTQVTVSS	low polyreactivity
QVQLVESGGGLVQAGGSLRLSCAASGRTFNIYAMGWYRQAPGKERELVAAITFTGGNTYYADSVKGRFTISRDNAKNTVYLQMNSLKPEDTAVYYCNKRLKWRSYDYWGQGTQVTVSS	low polyreactivity
QVQLVESGGGLVQAGGSLRLSCAASGFIFSFYAMGWYRQAPGKERALVAAINWSGGSTYYADSVKGRFTISRDNAKNTVYIQMNSLKPEDTEVYYCNAVQYFSIPKPVWLFVLRYYYWGQGTQVTVSS	low polyreactivity
QVQLVESGGGLVQAGGSLRLSCAASGRTFGPYAMGWYRQAPGKERELVAAISSSEGSTYYADSVKGRFTISRDNAKNTVYLQMNSLKPEDTAVYYCNARYYLWSTTRWYGYDYWGQGTQVTVSS	high polyreactivity
QVQLVESGGGLVQAGGSLRLSCAASGITFVYYAMGWYRQAPGKERELVASISSADNTHYADSVKGRFTISRDNAKNTVYLQMNSQKPEDTAVYYCAADYWWNLRHYSTGGYWGQGTQVTVSS	low polyreactivity
QVQLVESGGGLVQAGGSLRLSCAASVYGMGWYRQAPGKERELVAAISNGGTTYYADSVKGRFTISRDNAKNTVYLQMNSLKPEDTAVYYCARSYRSDGSRFGYWGQGTQVTVSS	low polyreactivity
QVQLVESGGGLVQAGGSLRLSCAASGRTFIFYAMGWYRQAPVKERELVAAITYSGTSTYYADSVKGRFTISRDNAKNTVYLQMNSLKPEDTAVYYCAKDGQRDANYYWGQGTQVTVSS	low polyreactivity
QVQLQESGGGLVQAGGSLCMSCAASGSISDYIFMGWYRQAPGKEREFVAGIGIGGNTNYADSVKGRFTISRDNAKNTVYLQMNSLKPEDTAVYYCAANATYTDYYAYWGQGTKVTVSS	low polyreactivity
QVQLVESGGGLVQAGGSLRLSCAASGSTFDSYAMGWYRQAPGKERELVAAITTTGGSTFYADSVKGRFTISRDNAKNTVYLQMNSLKPEDTAVYFCAADDGWQEFEYWGQGTQVTVSS	low polyreactivity
QVQLVESGGGLVQAVGSLRLSCAACGRILWYYTMGWYRQAPAKERELVAAISGRGSSTYYADSVKGRFTISRDNAKNTVYLQMNSLKPEDTAVYYCNAALRTRRGDYDYWGQGTQVTVSS	high polyreactivity

Sequence	polyreactivity (PSR sort gate)
QVQLEESGGGLVQAGGSLRLSCAASGRIFYEYAMGWYRQAPGKERELVADISSGDDTYYADSVKGRFTISRDNAKNTVYLQMNSLKPEDTAVYYCAADDGGSGFIYDYWGQGTQVTVSS	low polyreactivity
QVQIVESGGGLVQAGGSLRLSCAASGSTFFRYAMGWYRQAPGKERELVAAISYSGDSTYYADSVKGRFTISRDNAKNTVYLQMNSLKPEDTAVFYCNAVYFRYRYNYWGQGTQVTVSS	high polyreactivity
QVQLEESGGGLVQAGGSLRLSCAASGIIFRLYGMGWYRQAPGKEREFVATITWRGGRTNYADSVKGRFTISRDNAKNTVYLQMNSLTPEDTAVYYCANVVRYARSNEYDSSGQGTQVTVSS	low polyreactivity
QVQLQVSGGGLVQAGGNLRLSCASSCTISESFGMGWNRQAPGKEREFVAGITMGGITNYADSVRGRFTISRDNAKNMYLQMNSLKPEDTAVYYCEVDDYRYINYEFWGQGTQVSVSS	high polyreactivity
PVQLVESGGVLVQAGGSLRVSCAASGSILLIYSMGWSIQAPGKERELVAGINWSGSRAYYADSVKGRFTISRDNAQNTVYLQMNSLKPEDTAVYYCAARGRRPLYSAYDSWGQGTQVTVSS	low polyreactivity
QVQLVESGGGLVQAGGSLRLSCAASGFIFPLYTMGWYRQAPGKERELVAANSVTGGSTYYADSVKGRFTISRDNAKNTVYLQMNSLKPEETAVYYCNAYLFFLNRVWSFDYWGQGTQVTVSW	high polyreactivity
QVQLVESGGGLVQAGGSLRLSCAASGSTFRDYAMGWYRQAPGKERELVAAITSGGSTNYADSVKGRFTISRDNAKNTVYLQMNSLKPEDTAVYYCNARYAGWYTPWGRQSVYSDDYWGQGTQVTVSS	low polyreactivity
QVHLVDSGGGLVQAGGPLRLTCPASGSTYRYTIGWYRQAPGKQRELVAAITGSAGRTYYADSVKGRFTISRDNAKNTVYLQMNSLKPEVTAVYYCNKVRPSKFWDYYYCGQGTQVTVSS	high polyreactivity
QVQLVESCGGLVQAGGSLRLSCAASGFNIYRNAMGWYRKAPGKERELVAAISTSVGSTHYADSVKGRFTISRDNAMNTVYLQMYSLKPEDTAVYYCAKRRSIRDEFGYWGQGTQVTVSS	high polyreactivity
QVQLVESGGCLVQAGGSLRLSCAASGSTFGLYAKGLYRQAPGTEREFVAAITSTGGSTYFADSVKGRFTISRDNAQNTVYLQLNSLKPEDTAVYDSYADFFVWRYPHYLIFGYWGQGTQVTVSS	low polyreactivity
QVQLVESGGGLVQAGGSLRLSCAASGSTFGYYAMGWYRQAPGKESELVAAISAGGGSTYYADSVKGRFTISRDNAKNTVYLQLNSLKPEDTAVYFCAARRPHMPVKTYDYWGQGTLVTVSS	high polyreactivity
QVQLVESGGGLVQAGGSLRLSCAASGSICDVNAMGWYRQAPGKEREMVAAISDSGGSTYYADSVKGRFTISRDTAKNTVYLQMNSLNPEDTSVYYCNADWSWYNYYDFDYWGQGTQVTVSS	low polyreactivity
QVQLVESGGGLVQAGGSLRLSCAASGSTFYYYAMGWYRPAPGKERELVAAIRSDVSTNYADSVKGRFTISRDNAKNTVYLQMNSLKPEDTAVYYCAARFPWNRVTYDYWGQGTQVTVSS	low polyreactivity
QVQLVESGGGLVQAGGSLRLSCAASGRIFYRYAMGWYSQAPGKESELVAAITWRGGSTSYPDSVKGRFTISRDNAKNTVYLQMNSLKPEATAVYYCAAAAYGVPWRSYLGVFKSHMDYWGQGTQVTVSS	high polyreactivity
QVQLVESGGGLVQAGGSLRLSCAASGFTFVNYAMGWYRQAPGKERELVAAIRRSGSRTYYADSVKGRFTISRDNAKNTVYLQINSLKPEDTAVYYCGAVCYRLYGYWGQGTQVTVSS	low polyreactivity
QVQLVESGGGLVQAGGSLRLSCAASGSIFRRNAMGWYRQAPGKERELVAAISQSGGSTYYADSVKGRFTISRDNAKNTVYLQMNSLKPEDTAVYYCAAKAHTVGGYAYYHTSTYYWGQGTQVTVSS	high polyreactivity
QVQLVESGGGLVQAGGSLRLSCAASGSIFNSNVMGWYRQAPGKERELVAAISTSGGSTHYADSVKGRFTISRDNAKNTVYLQMNSLKPEDTAVYYCAARVSSYSQLYYYWGQGTQVTVSS	high polyreactivity
QVQLVESGGGLVQAGGSLRLSCAASGFIFRWYAMGWYRQAPGKERELVAAISRSGDSTYYADSVKGRFTISRDNAKNTVYLQMNSLKPEETAVYYCAADDRYYTYGYDYWGQGTQVTVSS	low polyreactivity
QVQLVESGGGLVQAGGSLRLSCAASGSTFSSYGMGWYRQAPGKERELVAAITSSGGSTYYADSVKGRFTISRDNAKNTVYLQMNSLKPEDTAVYYCAASDVIFWLYYYWGQGTQVTVSS	low polyreactivity
QVQLVESGGGFVEAGGSLRLSCAASGSIFRSYAMGWYRQAPGKERELVAAISSGDSTNYADTVKRRFTISRDNAQNTGYLQMNSLKPEDTADYYCAADQVQYTGYTEYDWGQGTQVTVSS	low polyreactivity
QVQLVESGGGLVQAGGSLRLSCAASGRIVGFYGMGWYRQAPGKERELVARITVGGGSTYYADSVKGRFTISRDNAKNTGYLQMNSLKPEDTAVYYCNAVYARYGSQGYEYWGQGTQVTVSS	high polyreactivity
